Reference: the DeepSol protein solubility set

Experiment: soluble on expression in E. coli; label from the status in PepcDB or PDB records

Sequence | soluble on expression in E. coli
MKSFQLVATAASGLEAIVGKEVARLGYDPKVENGKVYFEGDLSAIARANLWLRVADRVKIVVGVFKATTFDELFEKTKALPWEDYLPLDAQFPVAGKSVKSTLYSVPDCQAIVKKAIVNRVSEKYRRSGRLMETGALFKLEVSILKDEVTLTIDTSGAGLHKRGYRLAQGSAPIKETMAAALVLLTSWHPDRPFYDPVCGSGTIPIEAALIGQNIAPGFNREFVSETWDWMPKQVWADARQEAEDLANYDQPLNIIGGDIDARLIEIAKQNAVEAGLGDLITFRQLQVADFQTEDEYGVVVANPPYGERLEDEEAVRQLYREMGIVYKRMPTWSVYVLTSYELFEEVYGKKATKKRKLYNGYLRTDLYQYWGPRKPRPKKED | soluble
MKSGIYQIKNTLNNKVYVGSAKDFEKAWKRHFKDLEKGCHSSIKLQRSFNKHGNVFECSILEEIPYEKDLIIERENFWIKELNSKINGYNIADATFG | soluble
MKSKVAIVRTKPSTVLEDYHRLMNLAEYQNYISKDVDTALKINISWHFFYPGSSTTPWQLEGVIRALKRDGYNPELIHGCHNRTVVIDAHLGERENKQINVIKAHNLRNIHLYEGEEWIDIREAVGDLTKKFLCLNEVYPKGFSIPKRFIGENIIHLPTVKTHVFTTTTGAMKNAFGGLLNEKRHWTHPVIHETLVDLLMIQKKIHKGIFAVMDGTFAGDGPGPRCMVPHVKNVLLASADQVAIDAVAAKLMGFDPLKDCKYIRLAHDAGLGCGDVRQIEIVGDVDALNENWNFVGPYKKMTFASKCQHLIYWGPLKKPVEWTLKTILAPWSYIASVVYHDMYWYPKNYGRVEEILNSDWGRLFANWEQLQLPADDLSVPGWEHVGDKPLKLDKETSKMIRKAFRVLGTAIREAPEFSAKKSKKACK | soluble
MKSLQIYLFLFLSVFALGACIQNDIPYPYIKGEITAFEVEGQTGDAEINKNSRTIVVEVGDEVDIEELRITRFVVNEEATYSIDEQYCVSPNKFPSAGFSALADLPAGADTRVDFSKTVPVLLRTYQDYQWMITVKQTIERVVEVENQALPAIIDDKNHTVLVYVSQKQDLSAVKITKMILGGSKATITPDPSTVTNFRRPQEFVVNRFDKEELWTVDVVRTTSTGTTGSADVWATRATLNGGMKQGTTPRVEYRKKSEDTWTVVPETDVKLESGTTFSTTLTGLQDGTDYVWRVVVEEVPSTESGFTTEKIQEIPNLNFDTWSQNPTGTFKKSWYPNADGSNSFWATGNDGVTSSLAGSRDSSTRPEEKSVVNGKAAYMVTLGSVPLVGVAAGNLFIGDYKTNAQSPKDSPKFGRSFTGARPTGLKGWYKYTSKPVDYVGNPDNLKNDECHIYLRLWDDKDNEIGYGEFIGKETVTQYTQFRFDVTYTNKTAKPAKITIVATSSHYGGDFTGMKVTGSVGVGSELWVDEFELLYELEHHHHHH | soluble
MKSSKASEEDLAAATEKMQSMKGKKSQAAAALEAEQAKAEKRLSCLLKARTKLSFRVIRDGIKCHGGIHLKKQSEKAELDISVTNTAINNLPSDADIVITHKDLTDRAKAKLPNATHISVDNFLNSPKYDELIEKLKSNLIEREYCHASTRKGNIKLNQTVSSKEEAIKLAGQTLIDNGYVTEDYISKMFDREETSSTFMGNFIAIPHGTEEAKSEVLHSGISIIQIPEGVEYGEGNTAKVVFGIAGKNNEHLDIL | soluble
MKSTDQFQTHEVPWEEFIEALREEMKKQVGADIIDTVVCNLEDGFEVYTYVQGDLDFEYKEALERKYGSDAKTPNVLTIMLLASIYNTSEENIRLHADHKENPIVEVYVKQGNTL | not soluble
MKSVTSAQRPYQEVGAMIHDLIIKTPYNPGERLPPEREIAEMLDVTRTVVREALIMLEIKGLVEVRRGAGIYVLDSSGSHNTDSPDANVCNDAGPFELLQARQLLESNIAEFAALQATREDIVKMRQALQLEERELASSAPGSSESGDMQFHLAIAEATHNSMLVELFRQSWQWRENNPMWIQLHSHLDDSLYRKEWLGDHKQILAALIKKDARAAKLAMWQHLENVKQRLLEFSNVDDIYFDGYLFDSWPLDKVDA | not soluble
MKTFGLLGGLAYPSTAEYYLKINRQVHATLGKHHSAPLWIHSFDFEPIAQAQASGSWTILEEKLLQAALELERLGCQGLAIASNTMHLLAPALEGALSIPLVHIADSVGEESSLKGYKKLALLGTLFTMEKDFYASRLQERFDLEVITPAKEERNLVHECIYRELVNNIFTEDSRRDFIQIIHGLKERGAEAVILGCTEIPLLLEGASSPLPLLDTMELHVGSIVQSILEI | not soluble
MKTGVTGPYTFGVGLITYLCSKEIYVMEHEYYSGLSLGIMAIIAVKKLGPVIAKWADGEIDKIESEWKEGREAELKVLSDAIEAEKKEQWRADGALLLMEAKKENIALQLEAAFRERAMNVYSEVNRPLDYQVECRHVERRLSQKHMVNWITTNVLASISPQQEKETLNKCIADLSALALRVKSALEHHHHHH | not soluble
MKTIRLTTAQALVKFLNQQYVEFDGHIQKFVKGIFTIFGHGNVLGLGQALEEDPGELEVYQGRNEQGMAHAAIAFAKQKHRRQIMACTSSVGPGAANMVTAAATASANHIPVLLLPGDTFATRQPDPVLQQIEHWHDLTVSTNDAFRAVSKYWDRISRPEQLMSAMIQAMRVLTDPANTGAVTIALPQDVQGEAYDFPESFFQKRIHRIERRVPAKAAIHEAVELIRRKKKPIIICGGGVRYSEAAEELKQFAEKFHIPYGETQAGKSAVESAHPYNLGGIGVTGNLAANIIAKEADLVIGIGTRYTDFTTGSKQLFQHPEVEFLTINVSVFDACKLDAVRVVADAKLALLALTEELEKIGYRSGYTNEIDIAKKAWEEELNRLHHVRYRQSGFQPEVAGHLDEVLTEYSEFFDSSLTQTEVIGAINEWIDDDAIIIGAAGSLPGDLQRMWVARRPNTYHMEYGYSCMGYEIAGALGVKMAEPDKEVYAMVGDGSYLMLHSELVTSIQEKKKINVLLFDNGGFGCINNLQMGHGMGSFATEFRYRNEETGRLDGSLIPIDFAQSAAGYGVKTYKVHTLEQLKEALEDAKQQSVSTLIDIKVLPKTMTHDYESWWHVGVAEVSRNPKIAEAYKRKEQQLQRARKY | soluble
MKTLLSLGHGYSAQALAHRLLPQGWTVIGTTRSAAKAAELEAGGIEPLLWPGDLGPALARASHILASAAPGREGDPFLATHGAELARADARWVGYLSTTGVYGDHAGGWVDEDTPLTPSTERGQARVQAERQWQALGLPLHIFRLAGIYGPGRGPFEKVRDGTARRIVKPGQVFSRIHVADIAQVLEASMQHPEPGAIYNVCDDDPAPPEDVLGYAAELLGLPPPPEVPYDEAEMTPMARSFYAESKRVRNDRIKARLGIALLHPDYRSGLRSLLAGGD | not soluble
MKTLLYQKVYDQLKLSIQEGKIPVGSKMPTENELMAQFDVSSITLKKALELLKKDGYISRRPRVGTFVINDSPNSEQIETRKFDKPLFGCIMTNFDDTFGTILLSGMLEHSDSKAHIIVKKSLGDTEREEEILQEFIEMNVAGILILPASSKFVSPTLLELASQKFPLVVIDRTLEGLPISSISSDNTEAGRIITEKLFELGHKHIGMITSTSPVSTLDSRVNGFIRGHASFHTAFHSDYVFREIESVMPNSTVSIQTDIDKIARFLETHPEITALVATEYNIALLIKQACNKLGKSIPTNLSVVCFDHPDNFFDTSAFQFTHIKQAQYEIGVKAVDMLLNQVLKPDTINKETLPPLLVEGDSVEPLKSTSK | not soluble
MKTPQGNTSASRREVDTSMRNRFEFAGSSLRDRIGSILSMDQTPRPATRANIFMGRTPTPARHLPESRRMFVPDYTSTPAPTAPRQEFRFEDLSRIVAPPIEQTFIQLDSDGELTLPAESSIAVSPPPRPSSEPLRHLSQVSLSARPASTEPVRRDVHWRVHPSAKIRKCTVPKTPSFARPTKSWLNRVNRED | not soluble
MKTPRLPIAIQQAVMRRLRENLAQANLKLDRHYPEPKLVYTQRGTSAGTAWLESYEIRLNPVLLLENIDTFIAEVVPHELTHLLVWKHFGRKAPHGKEWKWMMESVLGVPARRTHQFALQSVRRNTFPYHCQCQQHQLTVRRHNRVVRGEAVYRCVHCGEPLVAGLEHHHHHH | not soluble
MKTTPDILDQIRVHGADAYPEEGCGFLLGTVTDDGDNRVAALHRATNRRSEQRTRRYELTADDYRAADAAAQEQGLDVVGVYHSHPDHPARPSATDLEEATFPGFTYVIVSVRDGAPEALTAWALAPDRSEFHREDIVRPDPEAPLEHHHHHH | soluble
MKTVMLMLTSLLMAGCSVLGKREAAEPPYELLKHDGAFEVRRYGPMVIAETILDEKSYSAASGKGFNRLAGYIFGKNRSKTSISMTAPVLQERSSEKISMTAPVLQQPQKGGWSMAFVLPEGFTLQSAPEPLDPEVKLRELPPSTIAVVTFSGLHSAANLEKYSRQLQAWLKKQGYRALSEPKLASYDPPWTIPFLRRNEVQIRIEPDHGESGKELEHHHHHH | soluble
MKVAGTSAPPETAPAASRPGLRELKKQRTRDLLLRSALELFTERGYEETTVDDIAEAADVSQRTFFRYFASKEDAAFFVARLAESHFVRAVLARPPEEAPLDALRRALAESWSTIGEAVEQLVPLELHMRFYRVIESTPALLAAHLRRATELEEEIARVVAVREGLDVDTDPRPRVIVAVFGAVMRVTERIWSARDDASLAALRDLTADYLDQVAPALTGNWRRAET | soluble
MKVELTAIEARVIGCLIEKEVTTPDQYPLSLNALTNASNQKSNREPVMALSESDVLDAVDALIERRLVSDESAFNSRVSKYQHRFCNTEFGDLKLSEQEKGIICCMLLRGAQTPGEIRTRTNRLATFHDVKEVEAVLEHLASEEKGPLVVKLPREAGKRESRYMHLFCGEVDVSAMAAAVPATSSSSVRIAQLEQEVAELREELDALKAQVESLLS | not soluble
MKVGIIMGSVRAKRVCPEIAAYVKRTIENSEELIDQKLKIQVVDLQQIALPLYEDDDELIPAQIKSVDEYADSKTRSWSRIVNALDIIVFVTPQYNWGYPAALKNAIDRLYHEWHGKPALVVSYGGHGGSKCNDQLQEVLHGLKMNVIGGVAVKIPVGTIPLPEDIVPQLSVHNEEILQLLASCIETTRNK | soluble
MKVKCEECGETYTLNDGEDPDDYICECGGKLKRETFLRRTALGVGVFSIP | not soluble
MKVKEAMNPEIITVSPETRPLEAFEKMYKHGVRRLFVLEDDGKPVGVVSYTDLIGVLGTIKPDSEHPERDLKVRDIMVDEVITISADDNIEDAANLMLRADISGLLVMDDERPVGVITKTDICRLVAAEILVPS | not soluble
MKWTVQQLRRFQHKEMAIDETVDVSDLKQIDTLIRDISPVHVQGKADVGSTKFTFHLTLSGTMVLPCSRTLVDVAYPFSIQTTETFFADGSGIVETDEDTHMVAGDTIDLNPIIRELILLEIPLQLIAEGPVAGGAPQHGEGWDVLSEEEWEKAMQEREKKVDPRLAGLAKFFEEKREE | not soluble
